Earlier results on eleven molecules are cited in US11459578B2, “Carbon fixation systems in plants and algae” (NMC, INC., priority 2014, dated 2022).

The target of one series is α-CAs found in mammals. Particulars: inhibitor not named; cited from earlier work.
The conditions of series [1]: cited from earlier work.

One may read the Ki as a dissociation constant, usually derived from enzyme kinetics or from competition with a known ligand. One may read the Km as the substrate concentration at which the rate is half of its maximum. “hCAI: human α-carbonic anhydrase isoenzyme I”: the Ki on α-CAs found in mammals is 250 nM. Besides, the Km in series [1] is 4 mM.
As to “hCAXIII: human α-carbonic anhydrase isoenzyme XIII”, the Ki on α-CAs found in mammals was 16 nM. Moreover, the Km in series [1] was 13.8 mM.

B1: hCAIII: human α-carbonic anhydrase isoenzyme III (protein, UniProt P07451 2-260, looked up)
Carbonic anhydrase 3: AKEWGYASHNGPDHWHELFPNAKGENQSPVELHTKDIRHDPSLQPWSVSYDGGSAKTILNNGKTCRVVFDDTYDRSMLRGGPLPGPYRLRQFHLHWGSSDDHGSEHTVDGVKYAAELHLVHWNPKYNTFKEALKQRDGIAVIGIFLKIGHENGEFQIFLDALDKIKTKGKEAPFTKFDPSCLFPACRDYWTYQGSFTTPPCEECIVWLLLKEPMTVSSDQMAKLRSLLSSAENEPPVPLVSNWRPPQPINNRVVRASFK
Consider B1, for which the Ki on α-CAs found in mammals is 200000 nM. Moreover, the Km in series [1] was 33.3 mM.

B2: hCAIV: human α-carbonic anhydrase isoenzyme IV (protein, UniProt P22748 19-284, looked up)
Carbonic anhydrase 4: AESHWCYEVQAESSNYPCLVPVKWGGNCQKDRQSPINIVTTKAKVDKKLGRFFFSGYDKKQTWTVQNNGHSVMMLLENKASISGGGLPAPYQAKQLHLHWSDLPYKGSEHSLDGEHFAMEMHIVHEKEKGTSRNVKEAQDPEDEIAVLAFLVEAGTQVNEGFQPLVEALSNIPKPEMSTTMAESSLLDLLPKEEKLRHYFRYLGSLTTPTCDEKVVWTVFREPIQLHREQILAFSQKLYYDKEQTVSMKDNVRPLQQLGQRTVIKS
Consider B2, for which, on α-CAs found in mammals, the Ki was 74 nM. Besides, in series [1], the Km is 21.5 mM.

B3: hCAXIV: human α-carbonic anhydrase isoenzyme XIV (protein, UniProt Q9ULX7 16-337, looked up)
Carbonic anhydrase 14: ADGGQHWTYEGPHGQDHWPASYPECGNNAQSPIDIQTDSVTFDPDLPALQPHGYDQPGTEPLDLHNNGHTVQLSLPSTLYLGGLPRKYVAAQLHLHWGQKGSPGGSEHQINSEATFAELHIVHYDSDSYDSLSEAAERPQGLAVLGILIEVGETKNIAYEHILSHLHEVRHKDQKTSVPPFNLRELLPKQLGQYFRYNGSLTTPPCYQSVLWTVFYRRSQISMEQLEKLQGTLFSTEEEPSKLLVQNYRALQPLNQRMVFASFIQAGSSYTTGEMLSLGVGILVGCLCLLLAVYFIARKIRKKRLENRKSVVFTSAQATTEA
With B3, on α-CAs found in mammals, the Ki was 41 nM. The Km in series [1] was 7.9 mM.

B4: hCAXII: human α-carbonic anhydrase isoenzyme XII (protein, UniProt O43570 25-354, looked up)
Carbonic anhydrase 12: APVNGSKWTYFGPDGENSWSKKYPSCGGLLQSPIDLHSDILQYDASLTPLEFQGYNLSANKQFLLTNNGHSVKLNLPSDMHIQGLQSRYSATQLHLHWGNPNDPHGSEHTVSGQHFAAELHIVHYNSDLYPDASTASNKSEGLAVLAVLIEMGSFNPSYDKIFSHLQHVKYKGQEAFVPGFNIEELLPERTAEYYRYRGSLTTPPCNPTVLWTVFRNPVQISQEQLLALETALYCTHMDDPSPREMINNFRQVQKFDERLVYTSFSQVQVCTAAGLSLGIILSLALAGILGICIVVVVSIWLFRRKSIKKGDNKGVIYKPATKMETEAHA
In the case of B4, the Ki on α-CAs found in mammals is 5.7 nM. Moreover, the Km in series [1] is 12 mM.

B5: hCAVA: human α-carbonic anhydrase isoenzyme VA (protein, UniProt P35218 39-305, looked up)
Carbonic anhydrase 5A, …: CAWQTSNNTLHPLWTVPVSVPGGTRQSPINIQWRDSVYDPQLKPLRVSYEAASCLYIWNTGYLFQVEFDDATEASGISGGPLENHYRLKQFHFHWGAVNEGGSEHTVDGHAYPAELHLVHWNSVKYQNYKEAVVGENGLAVIGVFLKLGAHHQTLQRLVDILPEIKHKDARAAMRPFDPSTLLPTCWDYWTYAGSLTTPPLTESVTWIIQKEPVEVAPSQLSAFRTLLFSALGEEEKMMVNNYRPLQPLMNRKVWASFQATNEGTRS
As for B5, the Ki at α-CAs found in mammals is 63 nM. For the same molecule, the Km in series [1] is 10 mM.

B6: hCAVI: human α-carbonic anhydrase isoenzyme VI (protein, UniProt P23280 18-308, looked up)
Carbonic anhydrase 6: QHVSDWTYSEGALDEAHWPQHYPACGGQRQSPINLQRTKVRYNPSLKGLNMTGYETQAGEFPMVNNGHTVQISLPSTMRMTVADGTVYIAQQMHFHWGGASSEISGSEHTVDGIRHVIEIHIVHYNSKYKSYDIAQDAPDGLAVLAAFVEVKNYPENTYYSNFISHLANIKYPGQRTTLTGLDVQDMLPRNLQHYYTYHGSLTTPPCTENVHWFVLADFVKLSRTQVWKLENSLLDHRNKTIHNDYRRTQPLNHRVVESNFPNQEYTLGSEFQFYLHKIEEILDYLRRALN
B6: the Ki on α-CAs found in mammals was 11 nM. Moreover, the Km in series [1] is 6.9 mM.

B7: hCAVII: human α-carbonic anhydrase isoenzyme VII (protein, UniProt P43166 1-264, looked up)
Carbonic anhydrase 7: MTGHHGWGYGQDDGPSHWHKLYPIAQGDRQSPINIISSQAVYSPSLQPLELSYEACMSLSITNNGHSVQVDFNDSDDRTVVTGGPLEGPYRLKQFHFHWGKKHDVGSEHTVDGKSFPSELHLVHWNAKKYSTFGEAASAPDGLAVVGVFLETGDEHPSMNRLTDALYMVRFKGTKAQFSCFNPKCLLPASRHYWTYPGSLTTPPLSESVTWIVLREPICISERQMGKFRSLLFTSEDDERIHMVNNFRPPQPLKGRVVKASFRA
In the case of B7, the Ki on α-CAs found in mammals was 2.5 nM. Further, in series [1], the Km was 11.4 mM.

B8: hCAXV: α-carbonic anhydrase isoenzyme XV (protein, UniProt Q99N23 19-324, looked up)
Carbonic anhydrase 15: VDSSGTWCYDSQDPKCGPAHWKELAPACGGPTQSPINIDLRLVQRDYTLKPFIFQGYDSAPQDPWVLENDGHTVLLRVNSCQQNCPAIRGAGLPSPEYRLLQLHFHWGSPGHQGSEHSLDEKHGSMEMHMVHMNTKYQSMEDARSQPDGFAILAVLLVEEDRDNTNFSAIVSGLKNLSSPGVAVNLTSTFALASLLPSALRLLRYYRYSGSLTTPGCEPAVLWTVFENTVPIGHAQVVQFQAVLQTGPPGLHPRPLTSNFRPQQPLGGRRISASPEASVRSSVSTLPCLHLALVGLGVGLRLWQGP
For the molecule B8, at α-CAs found in mammals, the Ki was 72 nM. Moreover, the Km in series [1] was 14.2 mM.

B9: hCAVB: human α-carbonic anhydrase isoenzyme VB (protein, UniProt Q9Y2D0 34-317, looked up)
Carbonic anhydrase 5B, …: CSLYTCTYKTRNRALHPLWESVDLVPGGDRQSPINIRWRDSVYDPGLKPLTISYDPATCLHVWNNGYSFLVEFEDSTDKSVIKGGPLEHNYRLKQFHFHWGAIDAWGSEHTVDSKCFPAELHLVHWNAVRFENFEDAALEENGLAVIGVFLKLGKHHKELQKLVDTLPSIKHKDALVEFGSFDPSCLMPTCPDYWTYSGSLTTPPLSESVTWIIKKQPVEVDHDQLEQFRTLLFTSEGEKEKRMVDNFRPLQPLMNRTVRSSFRHDYVLNVQAKPKPATSQATP
B9: at α-CAs found in mammals, the Ki was 54 nM. The Km in series [1] was 9.7 mM.
